Test results taken from the supplement of paper PMC9112550, “Optimization of the antimicrobial peptide Bac7 by deep mutational scanning” (BMC Biology, 2022).

System: Escherichia coli TOP10
Assay: shrunken log2 fold change of peptide-encoding DNA abundance (4.5 h post-induction vs induction); higher = less antimicrobial activity (less host growth inhibition)
Conditions: time post-induction: 4.5 h; library: site-saturation at positions 5, 18, 19, 20
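Further: peptides expressed intracellularly from a pBAD plasmid library in pooled LB shake-flask culture, induced with 0.3% L-arabinose, DNA abundance read by NGS, three biological replicates, DESeq2 with apeglm shrinkage.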

Row | Sequence | shrunken log2 fold change
1 | RRIRKRPPRLPRPRPRPSLFPRP | 0.125
2 | RRIRVRPPRLPRPRPRPEKKPRP | -0.0337
3 | RRIRHRPPRLPRPRPRPSHYPRP | 0.288
4 | RRIRLRPPRLPRPRPRPSGIPRP | -0.267
5 | RRIRIRPPRLPRPRPRPHAIPRP | -0.21
6 | RRIRNRPPRLPRPRPRPMYTPRP | -0.48
7 | RRIRSRPPRLPRPRPRPMEFPRP | 0.00489
8 | RRIRCRPPRLPRPRPRPDLVPRP | -0.0994
9 | RRIRWRPPRLPRPRPRPLCNPRP | 0.0306
10 | RRIRQRPPRLPRPRPRPRGMPRP | 0.143
11 | RRIRHRPPRLPRPRPRPSDAPRP | -0.293
12 | RRIRGRPPRLPRPRPRPLAWPRP | 1.43
13 | RRIRSRPPRLPRPRPRPPAFPRP | -0.00342
14 | RRIRHRPPRLPRPRPRPNNIPRP | -1.2
15 | RRIRDRPPRLPRPRPRPWPCPRP | 0.462
16 | RRIRIRPPRLPRPRPRPCTKPRP | -0.151
17 | RRIRWRPPRLPRPRPRPASHPRP | 0.187
18 | RRIRARPPRLPRPRPRPWMWPRP | 0.213
19 | RRIRQRPPRLPRPRPRPQCYPRP | -0.168
20 | RRIRTRPPRLPRPRPRPFGMPRP | 0.00903
21 | RRIRDRPPRLPRPRPRPPNCPRP | -0.0514
22 | RRIRGRPPRLPRPRPRPAAFPRP | 0.724
23 | RRIRNRPPRLPRPRPRPFAWPRP | 0.0341

Row | Sequence | shrunken log2 fold change
24 | RRIRKRPPRLPRPRPRPVDIPRP | -0.0337
25 | RRIRRRPPRLPRPRPRPYWHPRP | -0.484
26 | RRIRMRPPRLPRPRPRPCISPRP | 0.00253
27 | RRIRSRPPRLPRPRPRPSMTPRP | -0.356
28 | RRIRIRPPRLPRPRPRPCVAPRP | -0.288
29 | RRIRIRPPRLPRPRPRPMCYPRP | -1
30 | RRIRPRPPRLPRPRPRPAWGPRP | 0.503
31 | RRIRYRPPRLPRPRPRPASKPRP | -1.29e-05
32 | RRIRTRPPRLPRPRPRPCTTPRP | -0.0816
33 | RRIRKRPPRLPRPRPRPHIWPRP | 0.143
34 | RRIRGRPPRLPRPRPRPMQSPRP | 0.47
35 | RRIRHRPPRLPRPRPRPTACPRP | 0.074
36 | RRIRGRPPRLPRPRPRPYYKPRP | -0.607
37 | RRIRCRPPRLPRPRPRPGAQPRP | 0.312
38 | RRIRDRPPRLPRPRPRPCPVPRP | -0.426
39 | RRIRWRPPRLPRPRPRPYPFPRP | -0.0811
40 | RRIRTRPPRLPRPRPRPCSAPRP | -0.413
41 | RRIRRRPPRLPRPRPRPVHQPRP | 0.208
42 | RRIRSRPPRLPRPRPRPMRVPRP | 0.691
43 | RRIRSRPPRLPRPRPRPYCHPRP | -0.532
44 | RRIRHRPPRLPRPRPRPHLAPRP | -0.0341
45 | RRIRGRPPRLPRPRPRPSHHPRP | -0.286
46 | RRIRSRPPRLPRPRPRPMNTPRP | -0.647

Row | Sequence | shrunken log2 fold change
47 | RRIRRRPPRLPRPRPRPCFCPRP | 0.104
48 | RRIRQRPPRLPRPRPRPNTAPRP | -0.0235
49 | RRIRHRPPRLPRPRPRPDNQPRP | -0.0673
50 | RRIRIRPPRLPRPRPRPGCWPRP | 0.312
51 | RRIRDRPPRLPRPRPRPAHVPRP | -0.0599
52 | RRIRPRPPRLPRPRPRPDVVPRP | -0.00973
53 | RRIRHRPPRLPRPRPRPHWSPRP | -0.205
54 | RRIRIRPPRLPRPRPRPFNHPRP | -0.0691
55 | RRIRGRPPRLPRPRPRPMYLPRP | 0.0702
56 | RRIRCRPPRLPRPRPRPPMNPRP | -0.0519
57 | RRIRDRPPRLPRPRPRPNNYPRP | -0.542
58 | RRIRPRPPRLPRPRPRPDLPPRP | 0.315
59 | RRIRGRPPRLPRPRPRPYVQPRP | -0.122
60 | RRIRLRPPRLPRPRPRPPHCPRP | 0.177
61 | RRIRYRPPRLPRPRPRPINDPRP | -0.0981
62 | RRIRHRPPRLPRPRPRPKPIPRP | -0.0951
63 | RRIRKRPPRLPRPRPRPLFMPRP | -0.0207
64 | RRIRIRPPRLPRPRPRPKMPPRP | 0.0103
65 | RRIRNRPPRLPRPRPRPIFLPRP | -0.182
66 | RRIRLRPPRLPRPRPRPYDVPRP | -0.366
67 | RRIRCRPPRLPRPRPRPYCAPRP | -0.642
68 | RRIRARPPRLPRPRPRPVCSPRP | 0.665
69 | RRIRLRPPRLPRPRPRPGISPRP | -0.00752

Row | Sequence | shrunken log2 fold change
70 | RRIRPRPPRLPRPRPRPRFQPRP | -0.0819
71 | RRIRMRPPRLPRPRPRPIDKPRP | -0.197
72 | RRIRGRPPRLPRPRPRPEKAPRP | 0.144
73 | RRIRERPPRLPRPRPRPVFNPRP | -0.329
74 | RRIRDRPPRLPRPRPRPTFRPRP | -0.0707
75 | RRIRRRPPRLPRPRPRPKLRPRP | 1.25
76 | RRIRRRPPRLPRPRPRPIFYPRP | -0.0503
77 | RRIRDRPPRLPRPRPRPPTHPRP | 0.21
78 | RRIRARPPRLPRPRPRPRNSPRP | -0.0469
79 | RRIRWRPPRLPRPRPRPKCPPRP | -0.00278
80 | RRIRVRPPRLPRPRPRPTHMPRP | 0.0408
81 | RRIRRRPPRLPRPRPRPIPRPRP | 0.625
82 | RRIRMRPPRLPRPRPRPQKCPRP | -0.0433
83 | RRIRYRPPRLPRPRPRPTHVPRP | -0.27
84 | RRIRYRPPRLPRPRPRPFNMPRP | -0.202
85 | RRIRHRPPRLPRPRPRPRNLPRP | 0.0727
86 | RRIRCRPPRLPRPRPRPPMRPRP | 0.945
87 | RRIRARPPRLPRPRPRPAGNPRP | 0.129
88 | RRIRLRPPRLPRPRPRPVAMPRP | 0.0144
89 | RRIRLRPPRLPRPRPRPELDPRP | 0.273
90 | RRIRQRPPRLPRPRPRPVWGPRP | 0.225
91 | RRIRQRPPRLPRPRPRPGIKPRP | -1.89e-05
